We go through 1 molecule from PMC2064659 (The Journal of Cell Biology, 2007).

This assay concerns the target T1, GST-SH3^SGEF (amino acids 789–850) (UniProt Q96DR7 789-850).
T1 sequence (looked up): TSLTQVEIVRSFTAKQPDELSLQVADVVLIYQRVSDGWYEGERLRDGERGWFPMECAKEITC
Put plainly: pull-down.

B1: ICAM1–intracellular tail peptide, biotinylated (peptide)
peptide: GRQRKIKKYRLQQAQKGTPMKPNTQATPP
HELM: PEPTIDE1{[O=C1N[C@H]2[C@H](CS[C@H]2CCCCC(=O)[*:2])N1].G.R.Q.R.K.I.K.K.Y.R.L.Q.Q.A.Q.K.G.T.P.M.K.P.N.T.Q.A.T.P.P}$$$$V2.0
SMILES: CC[C@H](C)[C@H](NC(=O)[C@H](CCCCN)NC(=O)[C@H](CCCNC(=N)N)NC(=O)[C@H](CCC(N)=O)NC(=O)[C@H](CCCNC(=N)N)NC(=O)CNC(=O)CCCC[C@@H]1SC[C@@H]2NC(=O)N[C@@H]21)C(=O)N[C@@H](CCCCN)C(=O)N[C@@H](CCCCN)C(=O)N[C@@H](Cc1ccc(O)cc1)C(=O)N[C@@H](CCCNC(=N)N)C(=O)N[C@@H](CC(C)C)C(=O)N[C@@H](CCC(N)=O)C(=O)N[C@@H](CCC(N)=O)C(=O)N[C@@H](C)C(=O)N[C@@H](CCC(N)=O)C(=O)N[C@@H](CCCCN)C(=O)NCC(=O)N[C@H](C(=O)N1CCC[C@H]1C(=O)N[C@@H](CCSC)C(=O)N[C@@H](CCCCN)C(=O)N1CCC[C@H]1C(=O)N[C@@H](CC(N)=O)C(=O)N[C@H](C(=O)N[C@@H](CCC(N)=O)C(=O)N[C@@H](C)C(=O)N[C@H](C(=O)N1CCC[C@H]1C(=O)N1CCC[C@H]1C(=O)O)[C@@H](C)O)[C@@H](C)O)[C@@H](C)O
For the molecule B1, the binding result was “binds”.
